The test concerns the target AcrIIA22 (wild type, thrombin-cleaved) (Clostridial genus CAG-217 (human gut metagenome; taxonomy inferred by the paper)). The test is described as follows: SEC. On the technique in general: Size exclusion chromatography separates by hydrodynamic size, large species first.

1 substance from doi:10.1101/2020.09.28.317578 can be followed below.

Values joined by “and” are separate entries in the source; they are usually repeats but may differ in a detail not shown here. Equal entries are not always repeated.

Regarding “AcrIIA22 (wild type, thrombin-cleaved) (natural protein)”, the stoichiometry N (usually a count of units in the complex or per binding partner) was 4 and 5.
